Source: publication PMC4789767, “Application of linker technique to trap transiently interacting protein complexes for structural studies” (Journal of Biological Methods, 2016)

Target: T1, Calmodulin (CaM), wild type, full length (UniProt P0DP26 1-149)
T1 construct: Used without calcium (buffer with 2 mM EGTA); also called WT CaM; apo-CaM; source: purified, as described previously [19]
Experiment: ITC; VP-ITC; 150 µM CaM (WT or mutant) in the syringe, 10 µM full-length Nm/Ng (WT or mutant) in the cell; Buffer A (20 mM imidazole pH 8.0, 100 mM NaCl, 2 mM EGTA); 25°C; 30 injections of 10 µl
Conditions: both partners purified

B1: Neuromodulin (Nm), wild type, full length (natural protein)
chain: MLCCMRRTKQVEKNDEDQKIEQDGVKPEDKAHKAATKIQASFRGHITRKKLKGEKKGDAPAAEAEAKEKDDAPVADGVEKKEGDGSATTDAAPATSPKAEEPSKAGDAPSEEKKGEGDAAPSEEKAGSAETESAAKATTDNSPSSKAEDGPAKEEPKQADVPAAVTDAAATTPAAEDAATKAAQPPTETAESSQAEEEKDAVDEAKPKESARQDEGKEDPEADQEHA
notes: also called WT Nm; source: purified, as described previously [19]
B1: binds.
